From CN116761824A (SHANGHAI YAOMING HELIAN BIOTECHNOLOGY CO LTD, dated 2023)
One block for each binder: values may come before it.

Biological target: T1, 人Trop2 (human, UniProt P09758 27-323)
T1 construct: whole, on cells; also called 肿瘤相关钙信号转导器2; TACSTD2
T1 sequence (looked up): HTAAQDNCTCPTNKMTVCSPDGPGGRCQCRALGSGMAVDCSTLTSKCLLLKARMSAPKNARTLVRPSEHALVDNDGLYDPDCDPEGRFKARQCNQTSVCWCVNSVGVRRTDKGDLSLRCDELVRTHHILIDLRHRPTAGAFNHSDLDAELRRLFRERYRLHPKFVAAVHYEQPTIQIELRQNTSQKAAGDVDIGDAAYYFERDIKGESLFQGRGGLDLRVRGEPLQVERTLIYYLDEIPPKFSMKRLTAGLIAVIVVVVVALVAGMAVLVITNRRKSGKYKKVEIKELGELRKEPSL
Assay: FACS on tumour cells (MDA-MB-468, HCC827, BxPC-3), Alexa647 goat anti-human IgG Fc detection

binding result: binds
B1: 抗-Trop2抗体886-36 (antibody, V domains shown)
VH: QVQLQQSGSELKKPGASVKVSCKASGYTFTNYGMNWVKQAPGQGLKWMGWINTYTGEPTYTDDFKGRFAFSLDTSVSTAYLQISSLKADDTAVYFCARGGFGSSYWYFDVWGQGSLVTVSS
VL: DIQLTQSPSSLSASVGDRVSITCKASQDVSIAVAWYQQKPGKAPKLLIYSASYRYTGVPDRFSGSGSGTDFTLTISSLQPEDFAVYYCQQHYITPLTFGAGTKVEIKR
notes: also called WBP886-36

binding result: binds
B2: 886-36-MMAE (antibody, V domains shown)
VH: B1 VH
VL: B1 VL
modifications: MC-vc-PAB-MMAE on cysteines freed by partial TCEP reduction of interchain disulfides; mostly in the Fab domain; mainly DAR4 (82.3%)
